# B1: DVD485 (DLL4 (seq. 1) N-terminal / VEGF (AB071) C-terminal DVD-Ig, short HC linker, long LC linker) (bispecific antibody, human IgG1, kappa)
# heavy: not shown
# light: DIQMTQSPSSLSASVGDRVTITCRASQDVSTAVAWYQQKPGKAPKLLIYSASFLYSGVPSRFSGSGSGTDFTLTISSLQPEDFATTYYCQQSYTGTVTFGQGTKVEIKRTVAAPSVFIFPPDIQMTQSPSSLSASVGDRVTITCRASQVIRRSLAWYQQKPGKAPKLLIYAASNLASGVPSRFSGSGSGTDFTLTISSLQPEDFATYYCQQSNTSPLTFGQGTKVEIKRTVAAPSVFIFPPSDEQLKSGTASVVCLLNNFYPREAKVQWKVDNALQSGNSQESVTEQDSKDSTYSLSSTLTLSKADYEKHKVYACEVTHQGLSSPVTKSFNRGEC
# notes: also called DVD485H/DVD485L
# B2: DVD474 (VEGF (AB071) N-terminal / DLL4 (seq. 1) C-terminal DVD-Ig, long HC linker, long LC linker) (bispecific antibody, human IgG1, kappa)
# heavy: not shown
# light: DIQMTQSPSSLSASVGDRVTITCRASQVIRRSLAWYQQKPGKAPKLLIYAASNLASGVPSRFSGSGSGTDFTLTISSLQPEDFATYYCQQSNTSPLTFGQGTKVEIKRTVAAPSVFIFPPDIQMTQSPSSLSASVGDRVTITCRASQDVSTAVAWYQQKPGKAPKLLIYSASFLYSGVPSRFSGSGSGTDFTLTISSLQPEDFATTYYCQQSYTGTVTFGQGTKVEIKRTVAAPSVFIFPPSDEQLKSGTASVVCLLNNFYPREAKVQWKVDNALQSGNSQESVTEQDSKDSTYSLSSTLTLSKADYEKHKVYACEVTHQGLSSPVTKSFNRGEC
# notes: also called DVD474H/DVD474L
# B3: DVD486 (VEGF (AB071) N-terminal / DLL4 (seq. 1) C-terminal DVD-Ig, short HC linker, long LC linker) (bispecific antibody, human IgG1, kappa)
# heavy: not shown
# light: B2 light
# notes: also called DVD486H/DVD486L
# B4: DVD476 (bispecific antibody, human IgG1, kappa)
# heavy: not shown
# light: DIQMTQSPSSLSASVGDRVTITCSASQDISNYLNWYQQKPGKAPKVLIYFTSSLHSGVPSRFSGSGSGTDFTLTISSLQPEDFATYYCQQYSTVPWTFGQGTKVEIKRTVAAPDIQMTQSPSSLSASVGDRVTITCRASQDVSTAVAWYQQKPGKAPKLLIYSASFLYSGVPSRFSGSGSGTDFTLTISSLQPEDFATTYYCQQSYTGTVTFGQGTKVEIKRTVAAPSVFIFPPSDEQLKSGTASVVCLLNNFYPREAKVQWKVDNALQSGNSQESVTEQDSKDSTYSLSSTLTLSKADYEKHKVYACEVTHQGLSSPVTKSFNRGEC
# notes: DVD-Ig; HC long, LC short linker; also called DVD476H; DVD476L
# B5: DVD524 (bispecific antibody, human IgG1, lambda)
# heavy: not shown
# light: DIQMTQSPSSLSASVGDRVTITCSASQDISNYLNWYQQKPGKAPKVLIYFTSSLHSGVPSRFSGSGSGTDFTLTISSLQPEDFATYYCQQYSTVPWTFGQGTKVEIKRTVAAPQAVVTQESALTTSPGETVTLTCRSSTGAVTTSNYANWVQEKPDHLFTGLIGGTNNRAPGVPARFSGSLIGDKAALTITGAQTEDEAIYFCALWYSNHWVFGGGTKLTVLGQPKAAPSVTLFPPSSEELQANKATLVCLISDFYPGAVTVAWKADSSPVKAGVETTTPSKQSNNKYAASSYLSLTPEQWKSHRSYSCQVTHEGSTVEKTVAPTECS
# notes: DVD-Ig; HC long, LC short linker; also called DVD524H; DVD524L
# B6: DVD518 (bispecific antibody, human IgG1, kappa, lambda)
# heavy: not shown
# light: DIQMTQSPSSLSASVGDRVTITCSASQDISNYLNWYQQKPGKAPKVLIYFTSSLHSGVPSRFSGSGSGTDFTLTISSLQPEDFATYYCQQYSTVPWTFGQGTKVEIKRTVAAPSVFIFPPQAVVTQESALTTSPGETVTLTCRSSTGAVTTSNYANWVQEKPDHLFTGLIGGTNNRAPGVPARFSGSLIGDKAALTITGAQTEDEAIYFCALWYSNHWVFGGGTKLTVLGQPKAAPSVTLFPPSSEELQANKATLVCLISDFYPGAVTVAWKADSSPVKAGVETTTPSKQSNNKYAASSYLSLTPEQWKSHRSYSCQVTHEGSTVEKTVAPTECS
# notes: DVD-Ig; HC long, LC long linker; also called DVD518H; DVD518L
# B7: DVD522 (bispecific antibody, human IgG1, kappa, lambda, L234A L235A)
# heavy: not shown
# light: DIQMTQSPSSLSASVGDRVTITCRASQVIRRSLAWYQQKPGKAPKLLIYAASNLASGVPSRFSGSGSGTDFTLTISSLQPEDFATYYCQQSNTSPLTFGQGTKVEIKRTVAAPSVFIFPPQAVVTQESALTTSPGETVTLTCRSSTGAVTTSNYANWVQEKPDHLFTGLIGGTNNRAPGVPARFSGSLIGDKAALTITGAQTEDEAIYFCALWYSNHWVFGGGTKLTVLGQPKAAPSVTLFPPSSEELQANKATLVCLISDFYPGAVTVAWKADSSPVKAGVETTTPSKQSNNKYAASSYLSLTPEQWKSHRSYSCQVTHEGSTVEKTVAPTECS
# notes: DVD-Ig; outer AB071 (VEGF), inner AB073 (DLL4); HC long, LC long linker; also called DVD522H; DVD522L
# B8: DVD452 (bispecific antibody, human IgG1, kappa, L234A L235A)
# heavy: not shown
# light: DIQMTQSPSSLSASVGDRVTITCRASQVIRRSLAWYQQKPGKAPKLLIYAASNLASGVPSRFSGSGSGTDFTLTISSLQPEDFATYYCQQSNTSPLTFGQGTKVEIKRTVAAPSVFIFPPDIVMTQSPDSLAVSLGERATISCRASESVDNYGISFMKWFQQKPGQPPKLLIYAASNQGSGVPDRFSGSGSGTDFTLTISSLQAEDVAVYYCQQSKEVPWTFGGGTKVEIKRTVAAPSVFIFPPSDEQLKSGTASVVCLLNNFYPREAKVQWKVDNALQSGNSQESVTEQDSKDSTYSLSSTLTLSKADYEKHKVYACEVTHQGLSSPVTKSFNRGEC
# notes: DVD-Ig; outer AB071 (VEGF), inner AB069 (DLL4); HC long, LC long linker; also called DVD452H; DVD452L
# B9: DVD494 (bispecific antibody, human IgG1, kappa)
# heavy: not shown
# light: DIQMTQSPSSLSASVGDRVTITCSASQDISNYLNWYQQKPGKAPKVLIYFTSSLHSGVPSRFSGSGSGTDFTLTISSLQPEDFATYYCQQYSTVPWTFGQGTKVEIKRTVAAPSVFIFPPDIQMTQSSSYLSVSLGGRVTITCKASDHINNWLAWYQQKPGNAPRLLISGATSLETGVPSRFSGSGSGKDYTLSITSLQTEDVATYYCQQYWSIPLTFGAGTKLELKRTVAAPSVFIFPPSDEQLKSGTASVVCLLNNFYPREAKVQWKVDNALQSGNSQESVTEQDSKDSTYSLSSTLTLSKADYEKHKVYACEVTHQGLSSPVTKSFNRGEC
# notes: DVD-Ig; HC long, LC long linker; also called DVD494H; DVD494L
# B10: DVD470 (bispecific antibody, human IgG1, kappa)
# heavy: not shown
# light: DIQMTQSPSSLSASVGDRVTITCSASQDISNYLNWYQQKPGKAPKVLIYFTSSLHSGVPSRFSGSGSGTDFTLTISSLQPEDFATYYCQQYSTVPWTFGQGTKVEIKRTVAAPSVFIFPPDIQMTQSPSSLSASVGDRVTITCRASQDVSTAVAWYQQKPGKAPKLLIYSASFLYSGVPSRFSGSGSGTDFTLTISSLQPEDFATTYYCQQSYTGTVTFGQGTKVEIKRTVAAPSVFIFPPSDEQLKSGTASVVCLLNNFYPREAKVQWKVDNALQSGNSQESVTEQDSKDSTYSLSSTLTLSKADYEKHKVYACEVTHQGLSSPVTKSFNRGEC
# notes: DVD-Ig; HC long, LC long linker; also called DVD470H; DVD470L
# B11: DVD498 (bispecific antibody, human IgG1, kappa)
# heavy: not shown
# light: DIQMTQSPSSLSASVGDRVTITCRASQVIRRSLAWYQQKPGKAPKLLIYAASNLASGVPSRFSGSGSGTDFTLTISSLQPEDFATYYCQQSNTSPLTFGQGTKVEIKRTVAAPSVFIFPPDIQMTQSSSYLSVSLGGRVTITCKASDHINNWLAWYQQKPGNAPRLLISGATSLETGVPSRFSGSGSGKDYTLSITSLQTEDVATYYCQQYWSIPLTFGAGTKLELKRTVAAPSVFIFPPSDEQLKSGTASVVCLLNNFYPREAKVQWKVDNALQSGNSQESVTEQDSKDSTYSLSSTLTLSKADYEKHKVYACEVTHQGLSSPVTKSFNRGEC
# notes: DVD-Ig; outer AB071 (VEGF), inner AB072 (DLL4); HC long, LC long linker; also called DVD498H; DVD498L
# B12: DVD474 (bispecific antibody, human IgG1, kappa)
# heavy: not shown
# light: B2 light
# notes: DVD-Ig; outer AB071 (VEGF), inner AB015 (DLL4); HC long, LC long linker; also called DVD474H; DVD474L
# Molecular target: T1, human DLL4 extracellular domain (human, UniProt Q9NR61 27-529, biotin label in the Notch-1 competition ELISA (sites not given))
# Assay: cell-based or functional assay
row,Binder,"DVD-Ig Inhibition of sFlt1 (IC50, nM)"
1,B1,6.67 nM
2,B2,0.93 nM
3,B3,0.7 nM

# Molecular target: T2, DLL4 ECD/His tag (R&D 1506-D4-050) (UniProt Q9NR61 27-529)
# T2 construct: extracellular domain; Bought antigen coated on the ELISA plate; not shown: His tag
# Assay: direct bind ELISA, DLL4 on plate; DLL4 VD C-term.; HC Long, LC Short
row,Binder,EC50
1,B4,0.3 nM
2,B5,0.22 nM

# Molecular target: T3, human DLL4 on 293G-human DLL4 cells (human, UniProt Q9NR61 27-685)
# T3 construct: whole, on cells; no method paragraph describes this FACS assay
# Assay: FACS: inhibition of Notch1 binding to 293G-human DLL4 cells (competitor Notch1)
row,Binder,IC50
1,B1,6.3 nM
2,B2,27.5 nM
3,B3,10.2 nM

# Molecular target: T1, human DLL4 extracellular domain
# Assay: competition ELISA: 14 nM biotin-labelled human DLL4 ECD pre-mixed with DVD-Ig, then on coated human Notch-1 (competitor Notch-1)
row,Binder,IC50
1,B1,3.44 nM
2,B2,2.3 nM
3,B3,2.91 nM

# Molecular target: T2, DLL4 ECD/His tag (R&D 1506-D4-050)
# Assay: direct bind ELISA, DLL4 on plate; DLL4 VD C-term.; HC Long, LC Long
row,Binder,EC50
1,B6,5.9 nM
2,B7,0.48 nM
3,B8,0.34 nM
4,B9,39.5 nM
5,B10,0.19 nM
6,B11,0.45 nM
7,B12,0.57 nM
